Data reported in US20230189818A1, “RNA-BASED CONTROL OF BOTRYTIS” (priority 2021, published 2023).

Experiments:
Botrytis cinerea conidia = test: In vitro liquid-based assay (fungal biomass, 96-well plates, Cytation 5); assay type: cell-based; conditions: co-incubated with conidia for three days, vs untreated control
Description: Fungal culture. The Botrytis cinerea was plated each week the culture onto Malt Extract Agar (MEA) from long-term storage on silica stored at 4° C. Three pellets of silica were added to the center of a MEA agar plate and grown at room temperature without parafilm/tape seal for 10-14 days before use; a culture 12 days old was typically used.
Spore and media preparation. A pure culture of B. cinerea was flooded with a 0.01% Triton x-100 solution and conidia scraped free with a sterile hockey stick. The suspension was transferred to two, 1.5 mL centrifuge tubes and centrifuged at 8000 rpm for two minutes. The supernatant was discarded, pelleted spores washed twice with sterile water, then resuspended in sterile water. Conidia were quantified using a hemacytometer and diluted to a final concentration of 5000 conidia/mL stock. A stock solution of 1.25× minimal media was prepared for the assay setup using the components below. Once the stock solution was made, the pH was adjusted to 6.0 using NaOH or KOH, then filter sterilized through a 0.2 um filter tower and vacuum pump and stored at 4° C. The Kao & Michayluk Vitamins (100×) is a filter sterilized stock solution. The stock contains vitamins and amino acids as described by Kao & Michayluk. After filter sterilization, 20 mg of 4-Aminobenzoic acid in 100 ml of solution was added.
Experimental setup. Screening assays were setup in 96-well plates with conidia co-incubated with treatments (controls and dsRNAs) for three days before determining fungal biomass. Each treatment was replicated eight times within a single plate. In each well consisted of 12.5 μl of conidia suspension, 25 μl of the treatment, 12.5 μl of sterile deionized water, and 200 μl of minimal media. Each plate was covered with a breath right film and placed in the percival growth chamber at 23° C. on the shaking platform set to 120 RPM with 24-hour lighting. Plates were incubated for 72 hours before determining fungal growth.
Reading assay plate. Fungal biomass was determined by reading plates with the Cytation 5 machine. The program was set to compile 8 photo slices per well under brightfield microscopy with a 2.5× lens to measure biomass.
Data analysis. Analysis will automatically run on Cytation5 to determine final biomass.
Results are shown in Table 1B representing the average reduction in biomass vs. control for tested sequences across several runs described above.

[1] = tested on: Botrytis cinerea isolate (B05.10); test: Detached leaf assay (tomato leaflets, lesion size); assay type: in vivo; conditions: five days post inoculation, vs untreated inoculated control
Description: Plant tissue. Tomato plants, variety Brandywine, were grown in the greenhouse for 3 weeks before harvesting the first true leaves for assays. Nodes 2-4 were prioritized for harvest and only lateral leaflets were used for assays. Leaflets of approximately the same size were used each week and were randomized among treatments. Detached leaflets were immediately brought into the lab for treatment and used within 4 hours of harvest. Detached leaflets were kept at 4° C. until they were treated and placed onto a 1% water agar medium for incubation.
Fungal culture. A Botrytis cinerea isolate (B05.10) was preserved on silica for long-term storage and pulled from these tubes stored at 4° C. for growth on a nutritive medium. Three pellets of silica were added to the center of a Malt Extract Agar (MEA) agar plate and grown at room temperature without parafilm/tape seal for ˜14 days, or until abundant conidia formation, before use.
Treatment of leaflets. Leaflets were treated 24 hours before inoculation and applied using an atomizer to get a fine mist of small droplets entirely covering the leaflet. Silwet L-77 was used as a spreader and added for a 0.03% final concentration (Silwet L-77 brand Phyto Technology Laboratories, S7777 Lot #14D7777001 F). The inoculated control was sprayed with the same volume of sterile DI water with Silwet L-77 in the absence of fungicide or experimental material. Leaflets were spray treated by laying them on a paper towel and holding the atomizer ˜6″ away from the leaflet for applications. Treated leaves were placed on a 1% water agar (10 g Bacto Agar, Difco, in 1 L deionized water, sterilized for 30 minutes at 121° C. and poured when reached a temp of 55° C. into 100×20 mm Petri dishes), with lids of the Petri dishes placed back on before putting Petri dishes under plastic bags to maintain humidity before inoculation the following day. Petri dishes of treated leaflets were left on the lab counter until the following day. Each treatment was replicated ten times with each replicate being a single treated leaflet with two inoculation sites, one on each side of the leaf midvein.
Inoculation. The conidial suspension was prepared by pouring a 7% white grape juice solution onto the culture plate, then scraping the plate with a sterile spatula to dislodge the spores and mycelia. The grape juice solution was prepared by mixing Welch's brand organic white grape juice into sterile deionized water. After dislodging the spores and mycelia of the culture, the suspension was poured through two layers of cheesecloth to remove fungal mycelia and catch the conidial suspension in a clean 50 mL conical tube. Approximately 3 uL of TWEEN 20 was added to conidial suspension to prevent sticking to conical tube. The spore concentration was determined using a Neubauer Improved hemocytometer and inoculum was diluted with more 7% grape juice until a spore concentration of 1×10^5 conidia/mL was reached. Inoculum was used to inoculate host tissue within 2 hours of preparation. Each tomato leaflet was inoculated twice, with inoculation sites placed one per side of the leaflet midvein. A 10 μL volume of spore suspension was placed at each inoculation site using a repeater pipette. Special care was taken not to touch the tip to leaflet surface to avoid contamination between treatments.
Incubation. Petri dishes were placed on lunch trays 6 plates high and moved to an incubator. The incubator was humidity controlled and holds at ˜75% relative humidity. The incubator was kept on 12/12 light/dark days and is set to a temperature of 23° C.
Rating. Measurements were taken at five days post inoculation (DPI). Each lesion that developed was measured using electronic calipers in 2 directions perpendicular to each other to help determine lesion diameter.
Data analysis. Data was analyzed using the SAS JMP statistical program (version 13.2.1) with comparisons made to the untreated, inoculated control. […]

[2] = tested on: Botrytis cinerea B05.10 isolate; test: Greenhouse whole plant assay (tomato 'Lanai', disease severity); assay type: in vivo; conditions: 25 g ai/ha; final rating day (rating #3); three runs; four-week-old 'Lanai' tomato plant
Description: Plant Tissue: Tomato seedlings, variety “Lanai”, were seeded then thinned to one plant per pot in an 18 cell tray. […] Plants were grown at a 23° C./17° C. day/night temperature with 10 hours of light each 24-hour period. The RH was ambient and plants were fertilized two times a day every day except for Sunday when they received only water. Plants were grown using Fafard brand medium (70-80% sphagnum peat moss, perlite, vermiculite, dolomite limestone and watering agent) for the entire experiment.
Fungal culture. A Botrytis cinerea B05.10 isolate was maintained, and spores were harvested as previously described for detached leaf assays, except a grape juice additive was not used for inoculum preparation.
Treatment of plants. Whole tomato plants were treated ˜24 hours before inoculation using the spray booth. A 0.07% Silwet L-77 solution was used as a spreader and added for a 0.07% final volume in water (Silwet L-77 brand Phyto Technology Laboratories, S7777 Lot #14D7777001 F). The spray booth deck was set to 20″ above the plant canopy and a twinjet 8002EVS nozzle with 100 mesh filter placed into the spray mechanism. The spray boom was calibrated before treatment application with specs as follows: 50 GPA rate, 1.25 MPH speed, 6′ spray length, single pass, and at 45 psi to get a catch of 133 mL in 10 seconds (+/−6 mL). Each treatment was replicated ten times for each experimental run.
Inoculation. Plants were inoculated using a mist-o-matic applicator, which is pressurized by manual pumping. The inoculum suspension was poured into the mist-o-matic immediately before inoculation in the GH space. The containers were only filled half-way and inoculum was applied evenly to the surface of all foliage with even coverage.
Incubation. Plants were incubated inside of a 40″ tall humidity chamber supported by PVC pipe and covered in 3M translucent plastic. A humidifier was inside the chamber and set to low and continuous humidity (filled with tap water). The temperature was D:24-20° C./N:20-18° C. with 15 hours of light, of which 9 hours was with supplemental lighting. RH was ambient and watering occurred everyday by sub-irrigation with the bench being flooded for 10 minutes before draining.
Rating. Tomato plants were rated three times during the two-week experiment with rating starting four days post-inoculation and occurring every three to four days after the initial rating date. Plants were rated for the number of lesions and disease severity, which is the percentage of the plant that was symptomatic including necrotic lesions, pathogen sporulation, and chlorosis.
Data analysis. […] Percent disease severity (%DS) was determined by the percent area of the tomato foliage with symptoms including lesions, chlorosis, necrosis, and wilting. Disease severity was rated at three dates (Rating #) over the 12-day test period. Treatments were compared to the untreated, inoculated control and a chemical standard. Statistical analysis was done using SAS JMP version 13.2.1 with treatments compared to the untreated, inoculated control and a chemical standard using Tukey-Kramer and student's T tests.

Molecule | Average % Reduction in Biomass (Botrytis cinerea conidia; 25 ppm dsRNA) [%] | Average % Reduction in Biomass (Botrytis cinerea conidia; 150 ppm dsRNA) [%] | Average % Reduction in Lesion Size ([1]; 30 ppm) [%] | Average % Reduction in Lesion Size ([1]; 50 ppm) [%] | % control [2] [%]
GS2651: dsRNA trigger targeting B. cinerea Bcsec15 (XM_024692064.1); trigger SEQ ID NO 52, RNA 56, reverse complement 60 (nucleic acid, listed as Botrytis cinerea) sense: UAUGCCUGUCAAUAGCGAAGAAGACUUUGAUAAAAUCAUUCAAGUCAGUUGGUAUGUUCCGGACAGACCGAAAGAAGAAUACACAUUCCCCGGUGUAUUACCAUUCUCCCAGAUGUACCCAAUGUGCUGUAUAGAUAUCAGAAAUUUCCUGAAUCGAUUCUACUUCAUAAUGGAUGAUCAUUUUCAACAGCCAAACAUUAUUGAUGAGACACUUAAGAAGUCGAUAGAUGAGCUUCUGUCUGAGGAUAUUU antisense: AAAUAUCCUCAGACAGAAGCUCAUCUAUCGACUUCUUAAGUGUCUCAUCAAUAAUGUUUGGCUGUUGAAAAUGAUCAUCCAUUAUGAAGUAGAAUCGAUUCAGGAAAUUUCUGAUAUCUAUACAGCACAUUGGGUACAUCUGGGAGAAUGGUAAUACACCGGGGAAUGUGUAUUCUUCUUUCGGUCUGUCCGGAACAUACCAACUGACUUGAAUGAUUUUAUCAAAGUCUUCUUCGCUAUUGACAGGCAUA | 21 | 54 | 9.38 | 12.74 | 
GS245: dsRNA trigger targeting B. cinerea Sec18/Cdc48_2 (XM_024693092.1); trigger SEQ ID NO 13, RNA 25, reverse complement 37 (nucleic acid, listed as Botrytis cinerea) sense: UCAAGAGAGCCGAAGGUCAUAAACGGUCCUGAAGUGCUUAAUAAAUACGUUGGUCAAUCCGAAGAAAAUAUCCGAAAGCUUUUUGCCGAUGCCGAAAAGGAGUACAAGGAAAAGGGAGACGAGAGUGGUCUUCAUAUCAUCAUUUUCGACGAAUUGGAUGCCGUUUGCAAACAAAGAGGAAGUGGAUCAGGUGGCGGAACUGGUGUUGGCGACAGUGUGGUCAAUCAACUGUUGUCUAAGCUUGAUGGUGUUGACCAGCUCAAUAACAUUCUACUUAUUGGAAUGACCAAUCGUAUGGAUAUGAUUGAUGACGCGCUUCUCAGACCCGGACGUUUAGAAGUUCACAUGGAAAUUUCCCUGCCAGAUGAAGCUGGCAGAGCACAAAUUCUUAAGAUUCAUACGUCCAAGAUGUUAAAGAAUGAUGUCAUGGAUACAGAUGUCGAUGUUGCUGAACUUGCUCAUCUAACCAAGAACUUCUCGGGAGCUGAAAUUG antisense: CAAUUUCAGCUCCCGAGAAGUUCUUGGUUAGAUGAGCAAGUUCAGCAACAUCGACAUCUGUAUCCAUGACAUCAUUCUUUAACAUCUUGGACGUAUGAAUCUUAAGAAUUUGUGCUCUGCCAGCUUCAUCUGGCAGGGAAAUUUCCAUGUGAACUUCUAAACGUCCGGGUCUGAGAAGCGCGUCAUCAAUCAUAUCCAUACGAUUGGUCAUUCCAAUAAGUAGAAUGUUAUUGAGCUGGUCAACACCAUCAAGCUUAGACAACAGUUGAUUGACCACACUGUCGCCAACACCAGUUCCGCCACCUGAUCCACUUCCUCUUUGUUUGCAAACGGCAUCCAAUUCGUCGAAAAUGAUGAUAUGAAGACCACUCUCGUCUCCCUUUUCCUUGUACUCCUUUUCGGCAUCGGCAAAAAGCUUUCGGAUAUUUUCUUCGGAUUGACCAACGUAUUUAUUAAGCACUUCAGGACCGUUUAUGACCUUCGGCUCUCUUGA | 12 | 7 | 34.78 | 30.52 | 33
